Test [1] has as its target FITC labeled phosphorylated MST1 T367 peptide (human). The experiment in a line: fluorescence polarisation; 20 nM FITC-labelled peptide, MOB protein titrated (12 points, triplicate); 25 mM HEPES pH 7.5, 150 mM NaCl, 2 mM DTT, 1 mg/ml BSA; one site-specific binding fit.
Test [2] concerns the target FITC labeled phosphorylated MST1 T353 peptide (human). Described as above.

B1: MOB1A wild-type (natural protein)
chain: SFLFSSRSSKTFKPKKNIPEGSHQYELLKHAEATLGSGNLRQAVMLPEGEDLNEWIAVNTVDFFNQINMLYGTITEFCTEASCPVMSAGPRYEYHWADGTNIKKPIKCSAPKYIDYLMTWVQDQLDDETLFPSKIGVPFPKNFMSVAKTILKRLFRVYAHIYHQHFDSVMQLQEEAHLNTSFKHFIFFVQEFNLIDRRELAPLQELIEKLGSKDR
For the molecule B1, the results for the Kd in test [1] and in test [2] were 0.68 µM and 280 nM, respectively.

B2: MOB4 (tags cleaved) (natural protein)
chain: VMAEGTAVLRRNRPGTKAQDFYNWPDESFDEMDSTLAVQQYIQQNIRADCSNIDKILEPPEGQDEGVWKYEHLRQFCLELNGLAVKLQSECHPDTCTQMTATEQWIFLCAAHKTPKECPAIDYTRHTLDGAACLLNSNKYFPSRVSIKESSVAKLGSVCRRIYRIFSHAYFHHRQIFDEYENETFLCHRFTKFVMKYNLMSKDNLIVPILEEEVQNSVSGESEA
Molecule B2 yielded a Kd in test [1] of 12.2 µM.

Values taken from paper PMC5461540, “MOB1 Mediated Phospho-recognition in the Core Mammalian Hippo Pathway” (Molecular & Cellular Proteomics : MCP, 2017).
